We go through 2 molecules from patent US12702694B2, “Methods for identification, assessment, prevention, and treatment of metabolic disorders using SLIT2” (Dana-Farber Cancer Institute, Inc., priority 2015, dated 2026).

Test [1] has as its system primary inguinal adipocytes. Nature of the test: Thermogenic gene expression (qRT-PCR) in primary adipocytes treated with recombinant protein. Format: cell-based, Mus musculus. As for the experimental part: Inguinal and brown stromal-vascular fractions were obtained from 6 weeks old male or newborn mice (postnatal days 5-10) for white and brown fat cultures, respectively. Inguinal fat tissue was dissected and washed with PBS, minced and digested for 45 min at 37° C. in PBS containing 10 mM CaCl2), 2.4 U/ml dispase II (Roche) and 10 mg/ml collagenase D (Roche). Brown fat tissue was dissected, washed with PBS, minced and digested for 45 min at 37° C. in PBS containing 1.3 mM CaCl2, 123 mM NaCl, 5 mM KCl, 5.0 mM glucose, 100 mM HEPES, 4% BSA and 1.5 mg/ml collagenase B (Roche). Digested tissue was filtered through a 100-μm cell strainer and centrifuged at 600 g for 10 min. Pelleted inguinal stromal-vascular cells were grown to confluence and induced to differentiate by an adipogenic cocktail containing 0.02 μM insulin, 1 μM rosiglitazone, 5 μM dexamethasone, 0.5 μM isobuthylmethylxanthine. For differentiation of brown fat cells, 1 nM T3 and 125 μM indomethacin were also added to the adipogenic cocktail. Two days after induction, cells were maintained in adipocyte culture medium containing 0.02 μM insulin and 1 μM rosiglitazone. Where indicated, cells were treated with forskolin (10 μM), norepinephrine (100 nM) for 4 h or with recombinant proteins (1 μg/ml, R&D systems) for 24 h or for the indicated times. For adenoviral overexpression of Slit2-FL, Slit2-N, Slit2-C, LacZ or Cre, virus was added at day 2 of differentiation at a titer of 10^8 particles/well and cells were analyzed at day 6-7. […]
RNA was extracted from cultured cells or frozen tissue samples using TRIzol®, purified with QIAGEN RNeasy® minicolumns. Normalized RNA was reversed transcribed using a high-capacity cDNA reverse transcription lot (Applied Biosystems) and cDNA was analyzed by qRT-CPR. Relative mRNA levels were calculated using the comparative CT method and normalized to cyclophilin […]. […]
In general terms: Real-time PCR tracks product formation cycle by cycle.

The test system of the next test is lean mice. Nature of the test: Tissue gene expression after intravenous delivery of adenovirus to lean mice. Format: in vivo, Mus musculus. As for the experimental part: All animal experiments were approved by the Institutional Animal Care and Use Committee of the Beth Israel Deaconess Medical Center. Mice (Mus musculus) were obtained from Jackson Laboratories, maintained in 12 hour light-lark cycles (6 a.m.-6 p.m.) at 22° C., and fed a standard irradiated rodent chow diet or a high-fat diet (60% fat) for 12-20 weeks. AAV-8 viruses (Penn Vector Core) and adenoviruses (Vector Biolabs or constructed in-house) were injected at a titer of 10^11 or 10^10 per mouse, respectively. All experiments were done with male mice. The aP2-PRDM16 transgenic mice have been previously described in Seale et al. (2011) J. Clin. Invest. 121:96-105. PRDM16-floxed mice were crossed with adiponectin-Cre and were maintained on a pure C57BL/6 background (Cohen et al. (2014) Cell 156:304-316). The Slit2-floxed mice have been described previously in Rama et al. (2015) Nat. Med. 21:483-491. Lean C57BL/6 mice were obtained from Jackson Laboratories and were […].
RNA was extracted from cultured cells or frozen tissue samples using TRIzol®, purified with QIAGEN RNeasy® minicolumns. Normalized RNA was reversed transcribed using a high-capacity cDNA reverse transcription lot (Applied Biosystems) and cDNA was analyzed by qRT-CPR. Relative mRNA levels were calculated using the comparative CT method and normalized to cyclophilin […]. All primers used are listed with their sequences in Table 3 as follows: […]
Slit2 full-length (untagged and Myc-DDK tagged) expression plasmids and corresponding LacZ control plasmids in adenovirus was purchased from Vector Biolabs. To construct the Slit2-N and Slit2-C ENTR clones, PCR primers were designed to amplify the signal peptide, N-terminal, and C-terminal Slit2 from mouse cDNA (OriGene MR227608). To construct the Slit2-N and Slit2-C ENTR clone, the Slit2N gene was amplified from mouse Slit2 cDNA to create PCR fragments corresponding to Slit2-signal peptide and Slit2-N that were ligated into the pENTR1a dual selection vector. The Slit2-C PCR fragment was sub-cloned into the pENTR1a vector containing the signal peptide. The Slit2-N and Slit2-C expression clones in which the fragments are fused to a C-terminal V5 tag were generated by performing the LR reaction between pENTR/D-TOPO-Slit2N or pENTR/D-TOPO-Slit2-C and pAD/CMV/V5-DEST (Life Technologies). The expression construct was cut with Pac and transfected into HEK-293A cells to produce crude adenoviral stock. Amplified virus was purified and concentrated using the Vivapure® adenopack 100 (Sartorius Stedim Biotech) and buffer exchanged to 10 mM Tris-Cl at pH 8.0, 2 mM MgCl2, 4% w/v sucrose. Adenovirus titer was calculated using an Adeno-X™ Rapid Titer kit (Clontech). For primary adipocytes a concentration of 10^8 pfu/well was used and 10^10 pfu/mouse were used for in vivo experiments. Expression levels of Slit2-N and Slit2-C were confirmed after 48 hours post infection by Western blot analysis using a V5 antibody (Life Technologies). Expression of Slit2-N and Slit2-C was performed by amplification from mouse Slit2 cDNA and ligated into the pENTR dual selection vector with a signal peptide sequence.

In another test the test system is UCP1. Nature of the test: UCP1 immunohistochemistry on adipose tissue sections. The note with it: day 7. In kind it is in vivo, Mus musculus. As for the experimental part: Tissues were fixed in 4% paraformaldehyde. Paraffin embedding and sectioning were done by the Dana-Farber/Harvard Cancer Center Research Pathology core facility. For UCP1 immunohistochemistry, slides were deparaffinized in xylene, hydrated in descending 95%, 80% and 70% ethanol, and rinsed in water before heat-mediated antigen retrieval in 10 mM, pH 6.0 sodium citrate buffer. Quenching of endogenous peroxidases was performed using peroxidase quenching solution (Invitrogen). Slides were blocked in 10% goat serum and incubated with rabbit polyclonal UCP1 antibody (Abcam, ab10983) at […] in PBS-T/1% BSA overnight at 4° C. Slides were washed in PBS-T and incubated with 1:500 donkey anti-rabbit IgG HRP-linked antibody (GE healthcare) before developing using a SuperPicture™ 3rd Gen IHC Detection Kit (Invitrogen). Hematoxylin was used as counterstain. […] Digital images were captured with a Nikon Digital Sight DS-Fil color camera and NIS-Elements acquisition software.

[2] abbreviates: lean mice, Slit2-C adenovirus, FIG. 6D.
Setting [3] is: i.v. Slit2 adenovirus vs LacZ, lean mice, day 7, FIG. 4E.

B1: Slit2-C: ~50 kDa C-terminal cleavage fragment of Slit2 beginning at TSP (SEQ ID NO: 22); adenovirally expressed or purified FLAG-tagged protein (protein, listed as Homo sapiens)
chain: TSPCDNFDCQNGAQCIIRINEPICQCLPGYLGEKCEKLVSVNFVNKESYLQIPSAKVRPQTNITLQIATDEDSGILLYKGDKDHIAVELYRGRVRASYDTGSHPASAIYSVETINDGNFHIVELLTLDSSLSLSVDGGSPKVITNLSKQSTLNFDSPLYVGGMPGKNNVASLRQAPGQNGTSFHGCIRNLYINSELQDFRKMPMQTGILPGCEPCHKKVCAHGMCQPSSQSGFTCECEEGWMGPLCDQRTNDPCLGNKCVHGTCLPINAFSYSCKCLEGHGGVLCDEEEDLFNPCQMIKCKHGKCRLSGVGQPYCECNSGFTGDSCDREISCRGERIRDYYQKQQGYAACQTTKKVSRLECRGGCAGGQCCGPLRSKRRKYSFECTDGSSFVDEVEKVVKCGCARCAS
modifications: FLAG tag
notes: adenovirally expressed or purified FLAG-tagged protein
Regarding B1, in test [1] (2 h after purified protein treatment, FIG. 10N), the “changes in thermogenic gene expression in white and brown adipocytes in culture” value was “induced”. For the same molecule, the “induction of Ucp1 mRNA in iWAT” value in the test on lean mice (lean mice injected with Slit2-C adenovirus, FIG. 6C) is listed as 3 fold. For the same molecule, in the test on lean mice (setting [2]), the “expression of mitochondrial genes (Atp5b, Uqcrb, Atp6vOa2, Atp9b, Cox5a) in BAT” value is on record as “upregulation”; the “transcriptional regulators Prdm16, Nrf1, and Erra in classical brown fat” value is “significant changes”. The “UCP1 staining in inguinal white fat depots” value in the test on UCP1 (Slit2-C vs control animals, FIGS. 6E, 6G) was “multiple pockets of UCP1-positive cells”.

B2: Slit2: Slit family secreted extracellular matrix protein, full length ~180 kDa; used as commercial recombinant protein or adenovirally expressed (protein)
chain: QACPAQCSCSGSTVDCHGLALRSVPRNIPRNTERLDLNGNNITRITKIDFAGLRHLRVLQLMENRISTIERGAFQDLKELERLRLNRNNLQLFPELLFLGTAKLYRLDLSENQIQAIPRKAFRGAVDIKNLQLDYNQISCIEDGAFRALRDLEVLTLNNNNITRLSVASFNHMPKLRTFRLHSNNLYCDCHLAWLSDWLRQRPRVGLYTQCMGPSHLRGHNVAEVQKREFVCSGHQSFMAPSCSVLHCPAACTCSNNIVDCRGKGLTEIPTNLPETITEIRLEQNSIRVIPPGAFSPYKKLRRLDLSNNQISELAPDAFQGLRSLNSLVLYGNKITELPKSLFEGLFSLQLLLLNANKINCLRVDAFQDLHNLNLLSLYDNKLQTVAKGTFSALRAIQTMHLAQNPFICDCHLKWLADYLHTNPIETSGARCTSPRRLANKRIGQIKSKKFRCSGTEDYRSKLSGDCFADLACPEKCRCEGTTVDCSNQRLNKIPDHIPQYTAELRLNNNEFTVLEATGIFKKLPQLRKINFSNNKITDIEEGAFEGASGVNEILLTSNRLENVQHKMFKGLESLKTLMLRSNRISCVGNDSFIGLGSVRLLSLYDNQITTVAPGAFDSLHSLSTLNLLANPFNCNCHLAWLGEWLRRKRIVTGNPRCQKPYFLKEIPIQDVAIQDFTCDDGNDDNSCSPLSRCPSECTCLDTVVRCSNKGLKVLPKGIPKDVTELYLDGNQFTLVPKELSNYKHLTLIDLSNNRISTLSNQSFSNMTQLLTLILSYNRLRCIPPRTFDGLKSLRLLSLHGNDISVVPEGAFNDLSALSHLAIGANPLYCDCNMQWLSDWVKSEYKEPGIARCAGPGEMADKLLLTTPSKKFTCQGPVDITIQAKCNPCLSNPCKNDGTCNNDPVDFYRCTCPYGFKGQDCDVPIHACISNPCKHGGTCHLKEGENAGFWCTCADGFEGENCEVNIDDCEDNDCENNSTCVDGINNYTCLCPPEYTGELCEEKLDFCAQDLNPCQHDSKCILTPKGFKCDCTPGYIGEHCDIDFDDCQDNKCKNGAHCTDAVNGYTCVCPEGYSGLFCEFSPPMVLPRTSPCDNFDCQNGAQCIIRINEPICQCLPGYLGEKCEKLVSVNFVNKESYLQIPSAKVRPQTNITLQIATDEDSGILLYKGDKDHIAVELYRGRVRASYDTGSHPASAIYSVETINDGNFHIVELLTLDSSLSLSVDGGSPKVITNLSKQSTLNFDSPLYVGGMPGKNNVASLRQAPGQNGTSFHGCIRNLYINSELQDFRKMPMQTGILPGCEPCHKKVCAHGMCQPSSQSGFTCECEEGWMGPLCDQRTNDPCLGNKCVHGTCLPINAFSYSCKCLEGHGGVLCDEEEDLFNPCQMIKCKHGKCRLSGVGQPYCECNSGFTGDSCDREISCRGERIRDYYQKQQGYAACQTTKKVSRLECRGGCAGGQCCGPLRSKRRKYSFECTDGSSFVDEVEKVVKCGCARCAS
Take B2: the “expression of other genes associated with thermogenesis, including Dio2 and Cidea” value in test [1] (recombinant Slit2 protein 1 μg/ml, 24 hours, FIG. 3A) was “large increases”. Besides, the “increase in Ucp1 mRNA” value in test [1] (recombinant Slit2 protein 1 μg/ml, 24 hours, fully differentiated primary inguinal adipocytes, FIG. 3A) is ~ 3 fold. In the test with lean mice (7 days postinjection, FIGS. 12D-12F), the “vascular and neuronal markers in fat or skeletal muscle” value was “did not change”. In addition, in the test on lean mice (i.v. Slit2 adenovirus), the “induction of PRDM16 in brown fat” value is recorded as “greater than 2 fold” and the “other thermogenic genes or UCP1 protein in brown fat” value is given as “without any changes”. Also, the “induction of Ucp1 and Elovl3 in inguinal adipose tissue” value with lean mice (i.v. Slit2 adenovirus vs LacZ, day 7, FIG. 3F) is given as 2 fold. In the test on lean mice (setting [3]), the “induction of Prdm16 in iWAT” value came to 1.5 fold and the “induction of Ucp1 in iWAT” value came out at 2.5 fold. In addition, the “lipolysis or lipogenesis gene expression in the liver” value with lean mice (i.v. Slit2 adenovirus, FIG. 4A) was “No changes”. For the same molecule, in the test with lean mice (i.v. Slit2 adenovirus, FIG. 4B), the “skeletal muscle gene expression of Glut1, Glut4 and Tnfa” value is on record as “no gene expression changes”. For the same molecule, the “white fat selective genes, including Leptin and Resistin” value in the test on lean mice (iWAT, i.v. Slit2 adenovirus, FIG. 4E) was “strongly suppressed”. The “iWAT UCP1 protein” value in the test on UCP1 (histological sections, i.v. Slit2 adenovirus) is on record as “increased”.
